# Source: US20260167699A1 (Chugai, published 2026)
# Substitutions are numbered along the chain they refer to.
# T1: FcγRIIb extracellular domain, His-tagged (human, UniProt P31994 43-217)
# T1 construct: extracellular domain; also called 2b
# T1 sequence: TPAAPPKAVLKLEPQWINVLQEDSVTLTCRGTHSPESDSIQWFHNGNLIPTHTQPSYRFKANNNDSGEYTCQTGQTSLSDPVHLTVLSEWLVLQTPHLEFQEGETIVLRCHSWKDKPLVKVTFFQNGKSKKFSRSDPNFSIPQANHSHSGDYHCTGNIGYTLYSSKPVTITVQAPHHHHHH
# T2: FcγRIIa(R) extracellular domain, His-tagged (human, UniProt P12318 34-217)
# T2 construct: extracellular domain; also called 2aR
# T2 sequence: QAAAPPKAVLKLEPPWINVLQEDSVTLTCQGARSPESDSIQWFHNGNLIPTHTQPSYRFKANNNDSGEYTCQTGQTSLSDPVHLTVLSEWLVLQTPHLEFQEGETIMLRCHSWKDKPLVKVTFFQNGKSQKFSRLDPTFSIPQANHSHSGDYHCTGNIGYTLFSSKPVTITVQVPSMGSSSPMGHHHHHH
# T3: FcγRIIa(H) extracellular domain, His-tagged (human, UniProt P12318 34-217)
# T3 construct: extracellular domain; also called 2aH
# T3 sequence: T2 sequence with R134H
# B1: GpH7-A5/GpH7-B3 variant L234_16H/GpL16-k0 (antibody, human IgG1, kappa)
# heavy 1: not shown
# heavy 2: not shown
# light: DIVMTQSPLSLPVTPGEPASISCQASESLVHSNRNTYLHWYLQKPGQSPQLLIYKVSNRFSGVPDRFSGSGSGTDFTLKISRVEAEDVGVYYCSQNTHVPPTFGQGTKVEIERTVAAPSVFIFPPSDEQLKSGTASVVCLLNNFYPREAKVQWKVDNALQSGNSQESVTEQDSKDSTYSLSSTLTLSKADYEKHKVYACEVTHQGLSSPVTKSFNRGEC
# B2: GpH7-A5/GpH7-B3 variant P238_08L/GpL16-k0 (antibody, human IgG1, kappa)
# heavy 1: not shown
# heavy 2: not shown
# light: B1 light
# B3: GpH7-A5/GpH7-B3 variant L235_03V/GpL16-k0 (antibody, human IgG1, kappa)
# heavy 1: not shown
# heavy 2: not shown
# light: B1 light
# B4: GpH7-A5/GpH7-B3 variant L235_04F/GpL16-k0 (antibody, human IgG1, kappa)
# heavy 1: not shown
# heavy 2: not shown
# light: B1 light
# B5: GpH7-A5/GpH7-B3 variant L235_05P/GpL16-k0 (antibody, human IgG1, kappa)
# heavy 1: not shown
# heavy 2: not shown
# light: B1 light
# B6: GpH7-A5/GpH7-B3 variant P271_04F/GpL16-k0 (antibody, human IgG1, kappa)
# heavy 1: not shown
# heavy 2: not shown
# light: B1 light
# B7: GpH7-A5/GpH7-B3 variant P271_09D/GpL16-k0 (antibody, human IgG1, kappa)
# heavy 1: not shown
# heavy 2: not shown
# light: B1 light
# B8: GpH7-A5/GpH7-B3 variant L235_07I/GpL16-k0 (antibody, human IgG1, kappa)
# heavy 1: not shown
# heavy 2: not shown
# light: B1 light
# B9: GpH7-A5/GpH7-B3 variant P271_02A/GpL16-k0 (antibody, human IgG1, kappa)
# heavy 1: not shown
# heavy 2: not shown
# light: B1 light
# B10: GpH7-A5/GpH7-B3 variant P238_15Y/GpL16-k0 (antibody, human IgG1, kappa)
# heavy 1: not shown
# heavy 2: not shown
# light: B1 light
# B11: GpH7-A5/GpH7-B3 variant P238_10E/GpL16-k0 (antibody, human IgG1, kappa)
# heavy 1: not shown
# heavy 2: not shown
# light: B1 light
# B12: GpH7-A5/GpH7-B3 variant L235_20W/GpL16-k0 (antibody, human IgG1, kappa)
# heavy 1: not shown
# heavy 2: not shown
# light: B1 light
# B13: GpH7-A5/GpH7-B3 variant P271_01G/GpL16-k0 (antibody, human IgG1, kappa)
# heavy 1: not shown
# heavy 2: not shown
# light: B1 light
# B14: GpH7-A5/GpH7-B3 variant L235_16H/GpL16-k0 (antibody, human IgG1, kappa)
# heavy 1: not shown
# heavy 2: not shown
# light: B1 light
# B15: GpH7-A5/GpH7-B3 variant L235_02A/GpL16-k0 (antibody, human IgG1, kappa)
# heavy 1: not shown
# heavy 2: not shown
# light: B1 light
# B16: GpH7-A5/GpH7-B3 variant L235_06M/GpL16-k0 (antibody, human IgG1, kappa)
# heavy 1: not shown
# heavy 2: not shown
# light: B1 light
# B17: GpH7-A5/GpH7-B3 variant P238_09D/GpL16-k0 (antibody, human IgG1, kappa)
# heavy 1: not shown
# heavy 2: not shown
# light: B1 light
# B18: GpH7-A5/GpH7-B3 variant L234_18N/GpL16-k0 (antibody, human IgG1, kappa)
# heavy 1: not shown
# heavy 2: not shown
# light: B1 light
# B19: GpH7-A5/GpH7-B3 variant P271_06M/GpL16-k0 (antibody, human IgG1, kappa)
# heavy 1: not shown
# heavy 2: not shown
# light: B1 light
# B20: GpH7-A5/GpH7-B3 variant L235_18N/GpL16-k0 (antibody, human IgG1, kappa)
# heavy 1: not shown
# heavy 2: not shown
# light: B1 light
# B21: GpH7-A5/GpH7-B3 variant P271_08L/GpL16-k0 (antibody, human IgG1, kappa)
# heavy 1: not shown
# heavy 2: not shown
# light: B1 light
# B22: GpH7-A5/GpH7-B3 variant L235_14T/GpL16-k0 (antibody, human IgG1, kappa)
# heavy 1: not shown
# heavy 2: not shown
# light: B1 light
# B23: GpH7-A5/GpH7-B3 variant L235_10E/GpL16-k0 (antibody, human IgG1, kappa)
# heavy 1: not shown
# heavy 2: not shown
# light: B1 light
# B24: GpH7-A5/GpH7-B3 variant L234_19Q/GpL16-k0 (antibody, human IgG1, kappa)
# heavy 1: not shown
# heavy 2: not shown
# light: B1 light
# B25: GpH7-A5/GpH7-B3 variant L234_20W/GpL16-k0 (antibody, human IgG1, kappa)
# heavy 1: not shown
# heavy 2: not shown
# light: B1 light
# B26: GpH7-A5/GpH7-B3 variant P271_07I/GpL16-k0 (antibody, human IgG1, kappa)
# heavy 1: not shown
# heavy 2: not shown
# light: B1 light
# B27: GpH7-A5/GpH7-B3 variant L235_09D/GpL16-k0 (antibody, human IgG1, kappa)
# heavy 1: not shown
# heavy 2: not shown
# light: B1 light
# B28: GpH7-A5/GpH7-B3 variant L235_15Y/GpL16-k0 (antibody, human IgG1, kappa)
# heavy 1: not shown
# heavy 2: not shown
# light: B1 light
# B29: GpH7-A5/GpH7-B3 variant P238_19Q/GpL16-k0 (antibody, human IgG1, kappa)
# heavy 1: not shown
# heavy 2: not shown
# light: B1 light
# B30: GpH7-A5/GpH7-B3 variant P271_03V/GpL16-k0 (antibody, human IgG1, kappa)
# heavy 1: not shown
# heavy 2: not shown
# light: B1 light
# B31: GpH7-A5/GpH7-B3 variant L235_13S/GpL16-k0 (antibody, human IgG1, kappa)
# heavy 1: not shown
# heavy 2: not shown
# light: B1 light
# Target: T4, FcγRIIIa extracellular domain, His-tagged (human, UniProt P08637 17-208)
# T4 construct: extracellular domain; also called 3a
# Experiment: SPR, vs GpH7-A5/GpH7-B3/GpL16-k0 =100
# T4 sequence (P08637 other isoform, or with tags, fused parts or gaps): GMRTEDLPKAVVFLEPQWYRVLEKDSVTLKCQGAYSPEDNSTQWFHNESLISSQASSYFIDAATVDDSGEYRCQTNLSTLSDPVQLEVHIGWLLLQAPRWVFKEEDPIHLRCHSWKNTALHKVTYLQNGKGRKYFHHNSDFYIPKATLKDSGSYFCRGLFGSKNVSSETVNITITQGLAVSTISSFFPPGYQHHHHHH
row,He/Con 3a,Binder
1,76.8 % of control,B1
2,71.3 % of control,B2
3,94.6 % of control,B3
4,76.4 % of control,B4
5,68.6 % of control,B5
6,65.6 % of control,B6
7,97.7 % of control,B7
8,92.8 % of control,B8
9,83.7 % of control,B9
10,61 % of control,B10
11,98.9 % of control,B11
12,73.8 % of control,B12
13,119 % of control,B13
14,57.1 % of control,B14
15,72 % of control,B15
16,75.6 % of control,B16

row,He/Con 3a,Binder
1,100 % of control,B17
2,88.2 % of control,B18
3,74 % of control,B19
4,65 % of control,B20
5,74.5 % of control,B21
6,73.2 % of control,B22
7,85.6 % of control,B23
8,77.1 % of control,B24
9,103 % of control,B25
10,80.2 % of control,B26
11,88.5 % of control,B27
12,77.8 % of control,B28
13,52.7 % of control,B29
14,73.5 % of control,B30
15,67.2 % of control,B31

# Target: T1, FcγRIIb extracellular domain, His-tagged
# Experiment: SPR, vs GpH7-A5/GpH7-B3/GpL16-k0 =100
row,He/Con 2b,Binder
1,67.8 % of control,B1
2,207 % of control,B2
3,75.8 % of control,B3
4,135 % of control,B4
5,62.4 % of control,B5
6,66.7 % of control,B6
7,135 % of control,B7
8,100 % of control,B8
9,98.7 % of control,B9
10,221 % of control,B10
11,235 % of control,B11
12,168 % of control,B12
13,217 % of control,B13
14,87.8 % of control,B14
15,72 % of control,B15
16,92.4 % of control,B16

row,He/Con 2b,Binder
1,224 % of control,B17
2,92 % of control,B18
3,87 % of control,B19
4,62.7 % of control,B20
5,115 % of control,B21
6,53.4 % of control,B22
7,90.8 % of control,B23
8,68.9 % of control,B24
9,131 % of control,B25
10,86.1 % of control,B26
11,121 % of control,B27
12,170 % of control,B28
13,112 % of control,B29
14,83.8 % of control,B30
15,55 % of control,B31

# Target: T2, FcγRIIa(R) extracellular domain, …
# Experiment: SPR, vs GpH7-A5/GpH7-B3/GpL16-k0 =100
row,He/Con 2aR,Binder
1,83.5 % of control,B1
2,132 % of control,B2
3,83.4 % of control,B3
4,132 % of control,B4
5,74.6 % of control,B5
6,75.2 % of control,B6
7,109 % of control,B7
8,102 % of control,B8
9,93.9 % of control,B9
10,147 % of control,B10
11,142 % of control,B11
12,152 % of control,B12
13,143 % of control,B13
14,110 % of control,B14
15,86.6 % of control,B15
16,106 % of control,B16

row,He/Con 2aR,Binder
1,140 % of control,B17
2,98 % of control,B18
3,87.3 % of control,B19
4,77.3 % of control,B20
5,103 % of control,B21
6,70.6 % of control,B22
7,98.7 % of control,B23
8,87.2 % of control,B24
9,125 % of control,B25
10,88 % of control,B26
11,117 % of control,B27
12,150 % of control,B28
13,97.8 % of control,B29
14,85.8 % of control,B30
15,75.9 % of control,B31

# Target: T5, FcγRIa extracellular domain, His-tagged (human, UniProt P12314 16-292)
# T5 construct: extracellular domain; also called 1a
# Experiment: SPR, vs GpH7-A5/GpH7-B3/GpL16-k0 =100
# T5 sequence (P12314 other isoform, or with tags, fused parts or gaps): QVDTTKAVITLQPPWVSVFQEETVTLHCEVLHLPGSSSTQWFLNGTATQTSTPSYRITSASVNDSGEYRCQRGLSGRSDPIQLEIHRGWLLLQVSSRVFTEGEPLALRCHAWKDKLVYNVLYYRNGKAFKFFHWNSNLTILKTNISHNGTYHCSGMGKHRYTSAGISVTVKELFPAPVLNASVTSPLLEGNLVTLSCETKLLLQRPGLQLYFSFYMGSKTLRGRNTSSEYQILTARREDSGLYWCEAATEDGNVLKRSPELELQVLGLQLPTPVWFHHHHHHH
row,He/Con 1a,Binder
1,97 % of control,B1
2,104 % of control,B2
3,97.8 % of control,B3
4,100 % of control,B4
5,97.8 % of control,B5
6,100 % of control,B6
7,100 % of control,B7
8,103 % of control,B8
9,102 % of control,B9
10,104 % of control,B10
11,105 % of control,B11
12,95.9 % of control,B12
13,103 % of control,B13
14,92.7 % of control,B14
15,95.2 % of control,B15
16,101 % of control,B16

row,He/Con 1a,Binder
1,99 % of control,B17
2,97.3 % of control,B18
3,101 % of control,B19
4,95.2 % of control,B20
5,101 % of control,B21
6,91.6 % of control,B22
7,96.9 % of control,B23
8,98.8 % of control,B24
9,102 % of control,B25
10,101 % of control,B26
11,87.6 % of control,B27
12,100 % of control,B28
13,101 % of control,B29
14,101 % of control,B30
15,93.5 % of control,B31

# Target: T3, FcγRIIa(H) extracellular domain, …
# Experiment: SPR, vs GpH7-A5/GpH7-B3/GpL16-k0 =100
row,He/Con 2aH,Binder
1,97.1 % of control,B1
2,81.8 % of control,B2
3,94.9 % of control,B3
4,123 % of control,B4
5,64.2 % of control,B5
6,77.1 % of control,B6
7,80.4 % of control,B7
8,99.5 % of control,B8
9,88.4 % of control,B9
10,57.8 % of control,B10
11,74.6 % of control,B11
12,131 % of control,B12
13,123 % of control,B13
14,99.8 % of control,B14
15,77.6 % of control,B15
16,96.3 % of control,B16

row,He/Con 2aH,Binder
1,84.7 % of control,B17
2,100 % of control,B18
3,87.7 % of control,B19
4,73.5 % of control,B20
5,99.4 % of control,B21
6,79.5 % of control,B22
7,80 % of control,B23
8,88.1 % of control,B24
9,126 % of control,B25
10,94.1 % of control,B26
11,84.3 % of control,B27
12,135 % of control,B28
13,54.5 % of control,B29
14,85.4 % of control,B30
15,73.5 % of control,B31
